The experiment addresses His-Ub (UniProt P0CG48 1-76). The experiment in a line: pull-down.

B1: GST-NAT10 RFL (RING finger-like, residues 456-558) (domain or fragment)
chain: SARTLYEVSLQESIRYAPGDAVEKWLNDLLCLDCLNITRIVSGCPLPEACELYYVNRDTLFCYHKASEVFLQRLMALYVASHYKNSPNDLQMLSDAPAHHLFC
Take B1: the binding result is on record as “binds”.

The values above are taken from article PMC4772976 (EMBO Reports, 2016).
